Results: publication PMC4589357, “The Role of Electrostatic Interactions in Binding of Histone H3K4me2/3 to the Sgf29 Tandem Tudor Domain” (PLoS ONE, 2015)
Where a chain is given by its changes, count along the chain named. Names and notes keep the numbering of the source. Non-standard residues stand in square brackets, D forms with d. Primed or numbered codes have the meaning given here. No end group written: not given here. Lys(Me3) = C[N+](C)(C)CCCC[C@H](N)C(=O)O; Me3″ = trimethyl-lysine

Assays:
[1] = target: T1, Wild-type Sgf29 (SAGA-associated Factor 29) tandem tudor domain, residues 115-293 (human, UniProt Q96ES7 115-293); assay: ITC; peptide (generally 1.2 mM) titrated to protein (100 uM); for variants of low affinity 2.4 mM peptide to 200 uM protein; 25 mM TRIS pH 8.0, 50 mM NaCl, 1 mM DTT; one-site model; settings: both partners purified
T1 construct: also called WT Sgf29; WT; source: E. coli Rosetta BL21 DE3 PlysS, purified (Ni-NTA, TEV cleavage, SEC Superdex 75)
T1 sequence (looked up): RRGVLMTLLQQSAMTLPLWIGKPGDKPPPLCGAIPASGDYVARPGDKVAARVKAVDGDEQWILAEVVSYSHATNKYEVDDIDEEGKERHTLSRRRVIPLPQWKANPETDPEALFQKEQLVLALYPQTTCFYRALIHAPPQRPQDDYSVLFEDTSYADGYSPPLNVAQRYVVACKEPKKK

[2] = Differential scanning fluorimetry (DSF) melting temperature of Sgf29 and variants; type: physicochemical, Homo sapiens; settings: for Tm: SYPRO-Orange fluorescence, 25 mM TRIS pH 7.5, 50 mM NaCl, 1 mM DTT, 2.5 μl of 25 μM protein in 25 μl, 20–95°C, 1°C min^-1, ± SD, measured in triplicate
Method: Wild-type and variant Sgf29 reader domain proteins (Homo sapiens, residues 115–293) were expressed in terrific broth (TB) medium containing 50 μg ml^-1 kanamycin, using E. coli Rosetta BL21 DE3 PlysS as expression host. Bacteria were cultured to OD600 ≈ 0.6 at 37°C, 200 rpm after which the cultures were induced using 1 mM IPTG (final conc.). Cultures were then incubated at 16°C for 16 hours. Cells were harvested and lysed by sonication in 1x PBS, 250 mM NaCl, 5% glycerol, 0.2% CHAPS, 10mM β-mercaptoethanol. Lysate was centrifuged and the supernatant purified using Ni-NTA beads. The 6xHis tag was cleaved off overnight at 4°C using TEV-protease. Size exclusion chromatography, using a superdex 75 column, was employed as a final purification step with 25 mM TRIS pH 8.0, 50 mM NaCl, 1 mM DTT as eluent. Protein concentrations were determined by UV/Vis spectroscopy at 280 nm.
Sgf29 protein melt curves were obtained as described by Reinhard et. al. using a StepOne-Plus Real-Time PCR system (Applied Biosystems) and MicroAmp fast optical 96-well reaction plates (Applied Biosystems). SYPRO-Orange protein gel stain (Invitrogen) was used as a reporter dye, emitting fluorescence in the FAM channel. Total reaction volume was 25 μl; 20 μl buffer (25 mM TRIS pH 7.5, 50 mM NaCl, 1 mM DTT), 2.5 μl of 25 μM protein and 2.5 μl SYPRO-Orange dye (diluted 1:100 in ddH2O). Melt curve data were obtained in triplicate, in a temperature range of 20–95°C at a step-wise temperature increment of 1°C min^-1. Obtained data were analyzed using DSF Analysis v3.0.2 software, designed by Niesen et. al. (available via ftp://ftp.sgc.ox.ac.uk/pub/biophysics/).

B1: 7-mer H3K4me3 peptide ARTKme3QTA (peptide)
peptide: ARTK(Me3″)QTA
notes: histone H3 N-terminal tail, 7-mer, K4 trimethylated, lacks the last three residues of the 10-mer; The synthesis is described only for the two native 10-mer peptides; also called 7-mer peptide
Work on B1 yielded a Kd [1] of 9 ± 0.5 µM and a dH [1] of -7.8 ± 0.1 kcal/mol.

B2: WT: Wild-type Sgf29 reader domain protein (Homo sapiens, residues 115–293) (protein)
chain: T1 sequence (looked up)
modifications: left off: 6xHis, end not stated, cleaved
In the case of B2, the Tm [2] is reported as 57.8 ± 0.1 °C and the Tm ([2]; listed as WT Sgf29) is reported as 57.8 °C.

B3: D266A: Sgf29 variant, D266 substituted by alanine (protein)
chain: T1 sequence (looked up) with D152A
modifications: left off: 6xHis, end not stated, cleaved
notes: Sgf29 variant, D266 substituted by alanine
B3 showed a Tm [2] of 55.8 ± 0.3 °C.

B4: D266F: Sgf29 variant, D266 substituted by phenylalanine (protein)
chain: T1 sequence (looked up) with D152F
modifications: left off: 6xHis, end not stated, cleaved
notes: Sgf29 variant, D266 substituted by phenylalanine
In the case of B4, the Tm [2] is reported as 53.9 ± 0.5 °C and the “decrease in Tm relative to WT Sgf29” value [2] is reported as 3.3 °C.

B5: Y245F: Sgf29 variant, Y245 substitution (Y245F) (protein)
chain: T1 sequence (looked up) with Y131F
modifications: left off: 6xHis, end not stated, cleaved
B5 showed a Tm [2] of 56.4 ± 0.1 °C.

B6: D266Y: Sgf29 variant, D266 substituted by tyrosine (protein)
chain: T1 sequence (looked up) with D152Y
modifications: left off: 6xHis, end not stated, cleaved
notes: Sgf29 variant, D266 substituted by tyrosine
With B6 the Tm [2] was 54.5 ± 0.2 °C and the “decrease in Tm relative to WT Sgf29” value [2] was 3.9 °C.

B7: D266N: Sgf29 variant, D266 substituted by asparagine (protein)
chain: T1 sequence (looked up) with D152N
modifications: left off: 6xHis, end not stated, cleaved
notes: Sgf29 variant, D266 substituted by asparagine
Work on B7 yielded a Tm [2] of 56.4 ± 0.1 °C.

B8: Y238F: Sgf29 variant, Y238 substituted by phenylalanine (protein)
chain: T1 sequence (looked up) with Y124F
modifications: left off: 6xHis, end not stated, cleaved
notes: Sgf29 variant, Y238 substituted by phenylalanine
With B8 the Tm [2] was 56.5 ± 0.2 °C.

B9: D266W: Sgf29 variant, D266 substituted by tryptophan (protein)
chain: T1 sequence (looked up) with D152W
modifications: left off: 6xHis, end not stated, cleaved
notes: Sgf29 variant, D266 substituted by tryptophan
In the case of B9, the Tm [2] is reported as 55.5 ± 0.1 °C and the “decrease in Tm relative to WT Sgf29” value [2] is reported as 2.3 °C.

B10: D266E: Sgf29 variant, substitution of D266 by glutamic acid (protein)
chain: T1 sequence (looked up) with D152E
modifications: left off: 6xHis, end not stated, cleaved
notes: Sgf29 variant, substitution of D266 by glutamic acid
B10 gave a Tm [2] of 57.7 ± 0.1 °C.

B11: 10-mer H3K4me3 peptide that contains G instead of R at position 8 (ARTKme3QTAGKS) (peptide)
peptide: ART[Lys(Me3)]QTAGKS
notes: The synthesis is described only for the two native 10-mer peptides
With B11 the Kd [1] was 4 ± 0.6 µM and the dH [1] was -8 ± 0.1 kcal/mol.
